# B1: PII DNA (dsDNA)
# DNA 1: CTTATTTTAGTTGACCTTATCAACCTTGTTTCAG
# DNA 2: CTGAAACAAGGTTGATAAGGTCAACTAAAATAAG
# B2: MexR (Val5-Leu139) (domain or fragment)
# chain: VNPDLMPALMAVFQHVRTRIQSELDCQRLDLTPPDVHVLKLIDEQRGLNLQDLGRQMCRDKALITRKIRELEGRNLVRRERNPSDQRSFQLFLTDEGLAIHQHAEAIMSRVHDELFAPLTPVEQATLVHLLDQCL
# notes: MexR, transcriptional repressor of the MarR family, Pseudomonas aeruginosa, UniProt P52003, residues Val5-Leu139; Homodimer in solution; also called apo-MexR; hMexR; source: E. coli BL21 Rosetta 2(DE3), purified (Ni-NTA IMAC, TEV cleavage, reverse IMAC, Superdex 75)
# How the values were obtained:
# MexR = target: T1, MexR (Pseudomonas aeruginosa, UniProt P52003 5-139); assay: ITC; one MexR dimer per duplex; 20 C; ITC: 20 mM sodium phosphate pH 7.1, 150 mM NaCl, 5 mM beta-mercaptoethanol, 20 C; complex sample buffer: 20 mM sodium phosphate pH 7.1, 150 mM NaCl, 10 mM DTT; conditions: protein: recombinant; tags: 6xHis-thioredoxin tag removed with TEV; chain copies: 2; blunt
# T1 sequence: B2 chain
# [1] = target: the molecule itself; assay: SEC-MALS; Superdex 75 Increase 5/150, 20 mM HEPES pH 7.1, 150 mM NaCl, 10 mM DTT, 1% v/v glycerol, 0.3 mL/min, 20°C; MALLS with RI detection
Binder,Kd (MexR) [nM],stoichiometry N [1]
B1,240,–
B2,–,2

# Source: article PMC9892617, “Small-angle x-ray and neutron scattering of MexR and its complex with DNA supports a conformational selection binding model” (Biophysical Journal, 2022)
